From patent EP4786492A1
Substitutions are numbered along the chain they refer to. Each block holds one binder with its values, some of them ahead of it.

Experiments:
[1] = target: DLL3 endogenously expressed on NCI-H82 cells (UniProt Q9NYJ7); assay: FACS on NCI-H82 cells; antibody 4 nM
[2] = target: DLL3 endogenously expressed on NCI-H82 cells (UniProt Q9NYJ7); assay: FACS on NCI-H82 cells; antibody 20 nM
[3] = target: DLL3 endogenously expressed on NCI-H82 cells (UniProt Q9NYJ7); assay: FACS on NCI-H82 cells; antibody 0.8 nM
[4] = target: DLL3 endogenously expressed on NCI-H82 cells (UniProt Q9NYJ7); assay: FACS on NCI-H82 cells; antibody 100 nM
[5] = target: DLL3 endogenously expressed on NCI-H82 cells (UniProt Q9NYJ7); assay: FACS on NCI-H82 cells; antibody 0.16 nM
[6] = target: DLL3 endogenously expressed on NCI-H82 cells (UniProt Q9NYJ7); assay: FACS on NCI-H82 cells; antibody 0.032 nM
[7] = target: DLL3 endogenously expressed on NCI-H82 cells (UniProt Q9NYJ7); assay: FACS on NCI-H82 cells; antibody 0.0064 nM
[8] = target: DLL3 endogenously expressed on NCI-H82 cells (UniProt Q9NYJ7); assay: FACS on NCI-H82 cells; antibody 0.00128 nM
[9] = target: human DLL3 protein (extracellular segment, His tag) (human) (UniProt Q9NYJ7); assay: SPR (Biacore 8K), antibody captured on Protein A chip, DLL3 antigen in solution, 1:1 Langmuir fit
Sequence of human DLL3 protein (extracellular segment, His tag) (human) (Q9NYJ7 27-492): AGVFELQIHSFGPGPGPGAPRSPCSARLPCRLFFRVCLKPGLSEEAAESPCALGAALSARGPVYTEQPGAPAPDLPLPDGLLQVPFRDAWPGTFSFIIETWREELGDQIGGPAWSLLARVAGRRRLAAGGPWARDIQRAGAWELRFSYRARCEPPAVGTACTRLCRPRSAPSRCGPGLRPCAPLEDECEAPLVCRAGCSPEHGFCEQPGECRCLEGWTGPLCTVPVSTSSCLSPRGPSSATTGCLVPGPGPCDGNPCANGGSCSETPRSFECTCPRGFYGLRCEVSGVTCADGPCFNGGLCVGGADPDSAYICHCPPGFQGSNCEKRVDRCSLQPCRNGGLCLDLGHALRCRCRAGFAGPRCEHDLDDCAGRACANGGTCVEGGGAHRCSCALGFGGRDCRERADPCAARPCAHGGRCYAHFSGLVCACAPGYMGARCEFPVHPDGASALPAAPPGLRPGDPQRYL

Sequence of DLL3 endogenously expressed on NCI-H82 cells (Q9NYJ7 27-618): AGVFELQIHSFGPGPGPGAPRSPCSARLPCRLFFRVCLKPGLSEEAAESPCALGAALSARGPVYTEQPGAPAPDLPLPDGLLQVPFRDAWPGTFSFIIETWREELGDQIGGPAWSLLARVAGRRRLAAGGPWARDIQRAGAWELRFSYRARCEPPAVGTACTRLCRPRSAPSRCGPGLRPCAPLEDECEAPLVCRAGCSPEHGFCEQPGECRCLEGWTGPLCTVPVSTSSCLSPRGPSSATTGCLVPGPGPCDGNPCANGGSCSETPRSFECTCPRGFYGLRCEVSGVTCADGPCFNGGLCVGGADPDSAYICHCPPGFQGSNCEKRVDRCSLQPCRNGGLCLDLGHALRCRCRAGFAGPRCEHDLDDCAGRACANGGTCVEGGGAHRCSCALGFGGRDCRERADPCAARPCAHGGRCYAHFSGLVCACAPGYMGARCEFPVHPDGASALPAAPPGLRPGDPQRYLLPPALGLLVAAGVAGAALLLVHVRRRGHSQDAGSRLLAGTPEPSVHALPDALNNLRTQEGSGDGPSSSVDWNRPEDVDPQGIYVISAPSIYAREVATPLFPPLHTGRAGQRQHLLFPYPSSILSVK

B1: Hab009VL1aVH1-hFc (Fc fusion, part only; not given: Linker and human IgG1 Fc, not shown: a dimerising Fc or GST)
chain, part: DIVMTQSPLSLPVTPGEPASISCRASQTISDYLHWYLQKPGQSPQLLIKYASQSISGVPDRFSGSGSGSDFTLKISRVEAEDVGVYYCQQGHSFPLTFGQGTKLEIKEVQLVQSGAEVKKPGASVKVSCKASGYTFTSYWMHWVRQAPGQRLEWMGTIYPGNSDTRYNQKFKDRVTITADTSASTAYMELSSLRSEDTAVYYCTRSYDYGDLDYWGQGTTVTVSS
MFI [1]: 759 | MFI [2]: 815 | MFI [3]: 722 | MFI [4]: 888 | MFI [5]: 673 | MFI [6]: 379 | MFI [7]: 180 | MFI [8]: 122

B2: Hab009VL2aVH1-hFc (Fc fusion, part only; not given: Linker and human IgG1 Fc, not shown: a dimerising Fc or GST)
chain, part: B1 chain, part with Q45R, S69T
MFI [1]: 747 | MFI [2]: 789 | MFI [3]: 709 | MFI [4]: 870 | MFI [5]: 671 | MFI [6]: 377 | MFI [7]: 185 | MFI [8]: 124

B6: Hab015VL4VH6b-hFc (Fc fusion, part only; not given: VL-VH linker and human IgG1 Fc, not shown: another chain or arm of the molecule; a dimerising Fc or GST; small tags and cut ends)
VL: NIVLTQSPATLSLSPGERATLSCKASENVGTYVSWFQQKPGQSPRLLIYGASNRYTGIPARFSGSGSGTDFTLTISSLEPEDFAVYYCGQFYSFPSTFGGGTKVEIK
VH: EVQLVESGGGLVKPGGSLRLSCAASGITFSNFWMNWVRQAPEKGLEWVGQIRLKSDQYATHYAESVKGRFTISREDSKNTVYLQMNSLKTEDTAVYYCTTGYYFDYWGQGTTVTVSS
Kd [9]: 0.0131 nM | koff [9]: 2.5e-05 s⁻¹ | kon [9]: 1.91e+06 M⁻¹ s⁻¹

B7: Hab006VL4VH2-hFc (Fc fusion, part only; not given: Linker and human IgG1 Fc, not shown: a dimerising Fc or GST)
chain, part: DIVMTQSPDSLAVSLGERATINCRATKSISKYLAWYQQKPGQTNKLLIFSGSTLQSGVPDRFSGSGSGTDFTLTISSLQAEDVAVYYCQQHHEYPYTFGGGTKVEIKEVQLVQSGAEVKKPGASVKVSCKASGYTFTSYWMHWVRQAPGQRLEWMGVIDPSDSLANYNQEFKGRVTLTVDTSASTAYMELSSLRSEDTAVYYCARDSTVVAPMDYWGQGTTVTVSS
MFI [1]: 445 | MFI [2]: 494 | MFI [3]: 429 | MFI [4]: 588 | MFI [5]: 385 | MFI [6]: 250 | MFI [7]: 151 | MFI [8]: 117

More lines, now with the values ahead:

MFI [1]: 457 | MFI [2]: 488 | MFI [3]: 422 | MFI [4]: 586 | MFI [5]: 416 | MFI [6]: 292 | MFI [7]: 177 | MFI [8]: 123 | Kd [9]: 1.25 nM | koff [9]: 0.000203 s⁻¹ | kon [9]: 162000 M⁻¹ s⁻¹
B3: mab006 scFv-hFc (Fc fusion, part only; not given: linker and human IgG1 Fc, not shown: a dimerising Fc or GST)
chain, part: DVQITQSPSYLAASPGETITINCRATKSISKYLAWYQEKPGKTNKLLIFSGSTLQSGIPSRFRGSGSGTDFTLTISSLEPEDFAMYYCQQHHEYPYTFGGGTKLEIKQVQLQQPGAELVRPGTSVKLSCKASGYTFTSYWMHWVRQRPGQGLEWIGVIDPSDSLANYNQEFKGKATLTVDTSSSTAYMQLSSLTSEDSAVYYCARDSTVVAPMDYWGQGTSVTVSS

MFI [1]: 737 | MFI [2]: 833 | MFI [3]: 674 | MFI [4]: 968 | MFI [5]: 673 | MFI [6]: 346 | MFI [7]: 175 | MFI [8]: 123 | Kd [9]: 0.216 nM | koff [9]: 0.00132 s⁻¹ | kon [9]: 6.13e+06 M⁻¹ s⁻¹
B4: mab009 scFv-hFc (Fc fusion, part only; not given: Linker and human IgG1 Fc, not shown: a dimerising Fc or GST)
chain, part: DIVMTQSPATLSVTPGDRVSLSCRASQTISDYLHWYQQRSHESPRLLIKYASQSISGIPSRFSGSGSGSDFTLSINSVEPEDVGVYYCQNGHSFPLTFGAGTKLELKEVQLQQSGTVLARPGASVKMSCKTSGYTFTSYWMHWVKQSPGQGLEWIGTIYPGNSDTRYNQKFKDKAYVTAVTSASTAYMELSSLTNEESAVYYCTRSYDYGDLDYWGQGTTLTVSS

Kd [9]: 0.264 nM | koff [9]: 0.00082 s⁻¹ | kon [9]: 3.11e+06 M⁻¹ s⁻¹
B5: mab013 scFv-hFc (Fc fusion, part only; not given: linker and human IgG1 Fc, not shown: a dimerising Fc or GST)
scFv, part: DIVLTQSPASLAVSLGQRATISCRASKSVSTSGFSYMHWYQQKPGQPPKLLIYLASNLESGVPARFSGSGSGTDFTLNIHPVEEEDAATYYCQHSRELPFTFGSGTKLEIKQVQLQQSGAELVKPGASVRISCKASGYAFSNYWINWVKQRPGKGLEWIGQINPGDGDTIYNGKFKGKATLTADKSSSTAYMQLSSLTSEDSAVYFCEREGRNYGDFAYWGQGTTLTVSS
